According to US11319368B2, “Treatment of hepatotoxicity with IL-11 antibody” (Singapore Health Services PTE LTD., priority 2019, dated 2022):

B1: sgp130: human soluble gp130 Fc, inhibitor of trans-signaling complexes acting through gp130 (protein)
chain: ELLDPCGYISPESPVVQLHSNFTAVCVLKEKCMDYFHVNANYIVWKTNHFTIPKEQYTIINRTASSVTFTDIASLNIQLTCNILTFGQLEQNVYGITIISGLPPEKPKNLSCIVNEGKKMRCEWDGGRETHLETNFTLKSEWATHKFADCKAKRDTPTSCTVDYSTVYFVNIEVWVEAENALGKVTSDHINFDPVYKVKPNPPHNLSVINSEELSSILKLTWTNPSIKSVIILKYNIQYRTKDASTWSQIPPEDTASTRSSFTVQDLKPFTEYVFRIRCMKEDGKGYWSDWSEEASGITYEDRPSKAPSFWYKIDPSHTQGYRTVQLVWKTLPPFEANGKILDYEVTLTRWKSHLQNYTVNATKLTVNLTNDRYLATLTVRNLVGKSDAAVLTIPACDFQATHPVMDLKAFPKDNMLWVEWTTPRESVKKYILEWCVLSDKAPCITDWQQEDGTVHRTYLRGNLAESKCYLITVTPVYADGPGSPESIKAYLKQAPPSKGPTVRTKKVGKNEAVLEWDQLPVDVQNGFIRNYTIFYRTIIGNETAVNVDSSHTEYTLSSLTSDTLYMVRMAAYTDEGGKDGPEFTFTTPKFAQGEIE
modifications: left off: a dimerising Fc or GST
B2: sIL11Rα: soluble IL11Rα (human IL11Rα, R&D systems) (protein, UniProt Q14626 24-370, looked up)
extracellular domain: SPCPQAWGPPGVQYGQPGRSVKLCCPGVTAGDPVSWFRDGEPKLLQGPDSGLGHELVLAQADSTDEGTYICQTLDGALGGTVTLQLGYPPARPVVSCQAADYENFSCTWSPSQISGLPTRYLTSYRKKTVLGADSQRRSPSTGPWPCPQDPLGAARCVVHGAEFWSQYRINVTEVNPLGASTRLLDVSLQSILRPDPPQGLRVESVPGYPRRLRASWTYPASWPCQPHFLLKFRLQYRPAQHPAWSTVEPAGLEEVITDAVAGLPHAVRVSARDFLDAGTWSTWSPEAWGTPSTGTIPKEIPAWGQLHTQPEVEPQVDSPAPPRPSLQPHPRLLDHRDSVEQVAVLA
modifications: extracellular domain
B3: HyperIL11: IL11Rα:IL11 fusion protein which mimics the trans-signalling complex (SEQ ID NO:21) (protein)
chain: MSSSCSGLSRVLVAVATALVSASSPCPQAWGPPGVQYGQPGRSVKLCCPGVTAGDPVSWFRDGEPKLLQGPDSGLGHELVLAQADSTDEGTYICQTLDGALGGTVTLQLGYPPARPVVSCQAADYENFSCTWSPSQISGLPTRYLTSYRKKTVLGADSQRRSPSTGPWPCPQDPLGAARCVVHGAEFWSQYRINVTEVNPLGASTRLLDVSLQSILRPDPPQGLRVESVPGYPRRLRASWTYPASWPCQPHFLLKFRLQYRPAQHPAWSTVEPAGLEEVITDAVAGLPHAVRVSARDFLDAGTWSTWSPEAWGTPSTGPAGQSGGGGGSGGGSGGGSVPGPPPGPPRVSPDPRAELDSTVLLTRSLLADTRQLAAQLRDKFPADGDHNLDSLPTLAMSAGALGALQLPGVLTRLRADLLSYLRHVQWLRRAGGSSLKTLEPELGTLQARLDRLLRRLQLLMSRLALPQPPPDPPAPPLAPPSSAWGGIRAAHAILGGLHLTLDWAVRGLLLLKTRL
modifications: Hyper IL-11 (IL-11RAIL-11 fusion)

Experiments:
AILI = assay: X209, NAC or NAC+X209 3 h after APAP in mice
Experimental: Mice were administered anti-IL11Rα (X209) or IgG isotype control antibody at different times and doses, as described above or in the figure legends.
The levels of alanine transaminase (ALT) or aspartate aminotransferase (AST) in mouse serum and hepatocyte supernatant were measured using ALT Activity (ab105134, Abcam) or AST (ab105135, Abcam) Assay Kits. Liver glutathione sulfhydryl (GSH) measurements were performed using Glutathione Colorimetric Detection Kit (EIAGSHC, Thermo Fisher). All colorimetric assays were performed according to the manufacturer's protocol.
Western blots were carried out from hepatocyte and liver tissue lysates. Hepatocytes and tissues were homogenized in radioimmunoprecipitation assay (RIPA) buffer containing protease and phosphatase inhibitors (Thermo Fisher), followed by centrifugation to clear the lysate. Protein concentrations were determined by Bradford assay (Bio-Rad). Equal amounts of protein lysates were separated by SDS-PAGE, transferred to PVDF membrane, and subjected to immunoblot analysis for the indicated primary antibodies. Proteins were visualized using the ECL detection system (Pierce) with the appropriate secondary antibodies.

[1] = tested on: rheumatoid synovial cells; conditions: cited from earlier work
[2] = tested on: primary human hepatocytes; assay: IL11 stimulation of primary human hepatocytes with sgp130 or sIL11Rα; format: cell-based; conditions: for effect on IL11-induced hepatocyte death and signaling: IL11 20 ng/ml, sgp130, sIL11Rα 1 μg/ml; for effect on ALT release from IL11-stimulated hepatocytes: increasing doses
[3] = tested on: primary human hepatocytes; assay: hyperIL11 or hyperIL6 stimulation of primary human hepatocytes, with or without sgp130; format: cell-based

Molecule | expression of IL-11 [1] | effect on IL11-induced hepatocyte death and signaling [2] | effect on ALT release from IL11-stimulated hepatocytes [2] | further results
CC(=O)N[C@@H](CS)C(=O)O [NAC, N-acetyl-cysteine, reference compound] | – | – | – | ALT reduction (AILI; 3 h after APAP, NAC 500 mg kg^-1, X209 5 mg kg^-1): 38%; serum levels of ALT and AST (AILI; NAC 500 mg kg^-1 3 h after APAP): reduced serum levels of ALT and AST
COc1ccc2c(c1)c(CC(=O)O)c(C)n2C(=O)c1ccc(Cl)cc1 [indomethacin, reference compound] | reduction in the expression of IL-11 | – | – | –
interferon-gamma: interferon-gamma (IFNγ) | reduction in the expression of IL-11 | – | – | –
B1 | – | unaffected | no effect on ALT release | hepatotoxic effects of hyperIL11 (ALT) ([3]; increasing amounts of sgp130): inhibited the hepatotoxic effects of hyperIL11; signaling pathways downstream of hyperIL11 and hyperIL6 ([3]; sgp130 with hyperIL11 or hyperIL6 20 ng/ml): blocked the activation of signaling pathways downstream of both hyperIL11 (p-ERK/p-JNK) and hyperIL6 (p-STAT3)
B2 | – | unaffected | no effect on ALT release | –
B3 | – | – | – | ERK and JNK activation ([3]; 2.5 ng/ml to 20 ng/ml, 24 h): activated ERK and JNK in a dose-dependent manner; alanine transaminase (ALT) in the media ([3]; dose range, 24 h): dose-dependent increase in alanine transaminase (ALT)
